US20260098096A1 (MONASH UNIVERSITY, published 2026)

T1: human CCR3 (human, UniProt P51677 1-355)
T1 construct: whole, on cells
T1 sequence (looked up): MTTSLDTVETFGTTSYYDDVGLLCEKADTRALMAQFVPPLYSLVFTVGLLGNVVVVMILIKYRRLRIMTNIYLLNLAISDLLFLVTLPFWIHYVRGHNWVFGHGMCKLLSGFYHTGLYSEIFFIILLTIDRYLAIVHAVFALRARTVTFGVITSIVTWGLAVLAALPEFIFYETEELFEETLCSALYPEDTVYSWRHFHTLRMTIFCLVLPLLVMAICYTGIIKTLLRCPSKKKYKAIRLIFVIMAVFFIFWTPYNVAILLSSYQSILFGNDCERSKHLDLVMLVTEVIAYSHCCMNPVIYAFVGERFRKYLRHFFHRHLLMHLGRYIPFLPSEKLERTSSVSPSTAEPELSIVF

T2: human CCR6 (human, UniProt P51684 1-374)
T2 construct: whole, on cells
T2 sequence (looked up): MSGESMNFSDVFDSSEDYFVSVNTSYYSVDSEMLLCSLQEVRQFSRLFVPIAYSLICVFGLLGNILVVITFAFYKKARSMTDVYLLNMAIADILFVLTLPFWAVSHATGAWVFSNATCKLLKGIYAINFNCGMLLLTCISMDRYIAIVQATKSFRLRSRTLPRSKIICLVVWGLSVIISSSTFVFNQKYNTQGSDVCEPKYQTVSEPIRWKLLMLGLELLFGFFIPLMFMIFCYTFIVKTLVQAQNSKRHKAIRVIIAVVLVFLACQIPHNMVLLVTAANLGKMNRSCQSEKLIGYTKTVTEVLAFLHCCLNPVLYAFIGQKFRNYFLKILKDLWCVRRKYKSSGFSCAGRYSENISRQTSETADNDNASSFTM

T3: human CCR7 (human, UniProt P32248 25-378)
T3 construct: whole, on cells
T3 sequence (looked up): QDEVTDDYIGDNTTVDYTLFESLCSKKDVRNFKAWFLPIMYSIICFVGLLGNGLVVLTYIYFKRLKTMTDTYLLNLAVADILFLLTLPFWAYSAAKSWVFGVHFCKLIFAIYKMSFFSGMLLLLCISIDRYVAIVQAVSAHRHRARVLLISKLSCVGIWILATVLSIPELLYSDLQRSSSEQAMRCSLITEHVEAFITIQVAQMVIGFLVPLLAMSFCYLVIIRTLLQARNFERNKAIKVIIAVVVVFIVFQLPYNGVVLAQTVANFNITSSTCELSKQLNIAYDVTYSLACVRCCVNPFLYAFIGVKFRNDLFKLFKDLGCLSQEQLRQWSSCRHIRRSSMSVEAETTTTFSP

T4: human CCR10 (human, UniProt P46092 1-362)
T4 construct: whole, on cells
T4 sequence (looked up): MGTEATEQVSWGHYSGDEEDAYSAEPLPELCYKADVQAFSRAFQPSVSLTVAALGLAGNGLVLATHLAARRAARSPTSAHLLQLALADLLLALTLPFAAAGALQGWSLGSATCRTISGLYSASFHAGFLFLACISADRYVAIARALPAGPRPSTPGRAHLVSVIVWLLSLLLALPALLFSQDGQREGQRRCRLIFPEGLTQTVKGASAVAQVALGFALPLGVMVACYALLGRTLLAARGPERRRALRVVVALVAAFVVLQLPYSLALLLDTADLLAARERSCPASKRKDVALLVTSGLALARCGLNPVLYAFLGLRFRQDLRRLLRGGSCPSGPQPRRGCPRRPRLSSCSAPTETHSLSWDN

T5: Mouse CCR8 (mouse, UniProt P56484 1-353)
T5 construct: Expressed on transfected CHO-Flpn or L1.2 cells; also called mCCR8
T5 sequence: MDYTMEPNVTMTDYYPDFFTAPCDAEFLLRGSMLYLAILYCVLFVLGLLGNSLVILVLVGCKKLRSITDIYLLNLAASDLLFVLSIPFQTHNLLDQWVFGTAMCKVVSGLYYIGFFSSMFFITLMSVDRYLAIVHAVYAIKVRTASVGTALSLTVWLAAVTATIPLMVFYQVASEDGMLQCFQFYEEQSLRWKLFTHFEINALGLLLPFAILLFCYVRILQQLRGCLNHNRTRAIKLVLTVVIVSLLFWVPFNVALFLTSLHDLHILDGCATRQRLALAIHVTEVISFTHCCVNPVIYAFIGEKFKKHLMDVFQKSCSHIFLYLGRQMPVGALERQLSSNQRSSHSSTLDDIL

B1: Chimeric 2H8 (antibody, human IgG1, kappa, V domains shown)
VH: EVQLQQSGPELVKPGASVKMSCKASGYTFTDYNMHWVKQSHGKSLEWIGYVNPNNGGTSYNQKFKGKATLTVNKSSSTAYMELRSLTSEDSAVYYCARWVLRRNFAYWGQGTLVTVSA
VL: DIVMTQSHKFMSTSVGDRVSITCKASQDVNTAVAWYQQKPGQSPKLLIYWASTRHTGVPDRFTGSGSGTDYTLTISSVQAEDLALYYCQQHYRNPYTFGGGTKLEIKR
notes: also called Chimeric 2H8-B4; chimeric 2H8 B4 (parental)
B2: 2H8 anti-m/hCCR8 antibody (mouse hybridoma clone, isotype IgG2b) (antibody, V domains shown)
VH: B1 VH
VL: DIVMTQSHKFMSTSVGDRVSITCKASQDVNTAVAWYQQKPGQSPKLLIYWASTRHTGVPDRFTGSGSGTDYTLTISSVQAEDLALYYCQQHYRNPYTFGGGTKLEIK
notes: Murine antibody from a mouse immunised with mouse CCR8 L1.2 cells; the mouse constant regions are not; also called 2H8-B4
B3: Humanised 2H8 (antibody, V domains shown)
VH: QVQLVQSGAEVKKPGASVKVSCKASGYTFTDYNMHWVRQAPGQGLEWIGYVNPNNGGTSYNQKFKGKATLTVDKSISTAYMELSRLRSDDTAVYYCARWVLRRNFAYWGQGTLVTVSS
VL: DIQMTQSPSSLSASVGDRVTITCKASQDVNTAVAWYQQKPGKAPKLLIYWASTRHTGVPSRFSGSGSGTDFTLTISSLQPEDFATYYCQQHYRNPYTFGQGTKLEIK
notes: also called Humanized 2H8-B4; h2H8

What was measured:
Human CCR8 = target: T6, Human CCR8 (human, UniProt P51685 1-355); experiment: flow cytometry on hCCR8-L1.2 transfected cells
T6 construct: Expressed on transfected CHO-Flpn or L1.2 cells; also called hCCR8; C-C chemokine receptor type 8

human CCR3 = target: T1, human CCR3; experiment: flow cytometry on transfected L1.2 cells
human CCR6 = target: T2, human CCR6; experiment: flow cytometry on transfected L1.2 cells
human CCR7 = target: T3, human CCR7; experiment: flow cytometry on transfected L1.2 cells
human CCR10 = target: T4, human CCR10; experiment: flow cytometry on transfected L1.2 cells
Cynomolgus CCR8 = target: T7, Cynomolgus CCR8 (cynomolgus monkey, UniProt O97665 1-356 (rhesus entry)); experiment: flow cytometry on HEK293T cells transfected with cyno CCR8
T7 construct: also called cyno CCR8; cynomolgus monkey CCR8
Description: FIG. 2. Reactivity of 2H8 antibody and other anti-hCCR8 antibodies towards Cyno CCR8. HEK293T cells were transfected with plasmid coding for cynomolgus monkey CCR8 and stained with various anti-hCCR8 antibodies (blue) or isotype control (red).

Mouse CCR8 = target: T5, Mouse CCR8; experiment: flow cytometry on transfected CHO-Flpn cells
hCCR8_172-173 YQ-AA = target: T8, hCCR8_172-173 YQ-AA (human, UniProt P51685 1-355); experiment: epitope mapping on transfected cells
T8 construct: also called Mut 172-173

hCCR8_174-175 VA-AG = target: T9, hCCR8_174-175 VA-AG (human, UniProt P51685 1-355); experiment: epitope mapping on transfected cells
T9 construct: also called Mut 174-175
T9 sequence (P51685 whole entry V174A/A175G): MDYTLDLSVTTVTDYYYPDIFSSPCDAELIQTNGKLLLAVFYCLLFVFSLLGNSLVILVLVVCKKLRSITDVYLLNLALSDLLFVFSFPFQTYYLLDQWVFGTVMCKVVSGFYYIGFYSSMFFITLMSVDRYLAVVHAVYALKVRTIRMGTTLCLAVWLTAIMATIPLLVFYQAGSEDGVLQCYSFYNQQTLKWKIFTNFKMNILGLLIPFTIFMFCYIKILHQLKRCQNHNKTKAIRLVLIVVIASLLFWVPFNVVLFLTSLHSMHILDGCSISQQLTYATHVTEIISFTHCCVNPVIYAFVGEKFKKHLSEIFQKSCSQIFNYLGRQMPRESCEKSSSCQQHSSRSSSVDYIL

T6 sequence (P51685 whole entry): as the sequence (P51685 whole entry V174A/A175G) above, with A174V, G175A counted along it
T8 sequence (P51685 whole entry Y172A/Q173A): as the sequence (P51685 whole entry V174A/A175G) above, with Y172A, Q173A, A174V, G175A counted along it
T7 sequence (O97665 other isoform, or with tags, fused parts or gaps): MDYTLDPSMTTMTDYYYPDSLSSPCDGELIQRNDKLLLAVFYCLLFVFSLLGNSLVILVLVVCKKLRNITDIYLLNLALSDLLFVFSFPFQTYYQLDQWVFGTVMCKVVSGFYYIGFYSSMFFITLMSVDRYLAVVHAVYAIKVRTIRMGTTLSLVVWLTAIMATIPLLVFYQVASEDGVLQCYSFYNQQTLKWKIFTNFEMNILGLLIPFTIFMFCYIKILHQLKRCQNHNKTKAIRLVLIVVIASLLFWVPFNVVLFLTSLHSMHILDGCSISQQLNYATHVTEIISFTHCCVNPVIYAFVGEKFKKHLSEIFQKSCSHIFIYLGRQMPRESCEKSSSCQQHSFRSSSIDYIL

Binder | EC50 (Human CCR8) | binding result (human CCR3) | binding result (human CCR6) | binding result (human CCR7) | binding result (human CCR10) | binding result (Cynomolgus CCR8) | binding result (Mouse CCR8) | binding result (hCCR8_172-173 YQ-AA) | binding result (hCCR8_174-175 VA-AG)
B1 | 2.1 nM |  |  |  |  |  |  |  | 
B2 |  | no binding | no binding | no binding | no binding | binds | binds | binds | binds
B3 | 2.1 nM |  |  |  |  |  |  |  | 
